The results in this text go back to US20180185504A1 (Regeneron, published 2018).

Holding throughout (experiment): SPR Biacore, 25 C, mAb capture
Experiment [1] concerns the target T1, hPRLR.mmh (soluble monomeric human PRLR) (human).
T1 construct: called soluble monomeric PRLR protein
T1 chain: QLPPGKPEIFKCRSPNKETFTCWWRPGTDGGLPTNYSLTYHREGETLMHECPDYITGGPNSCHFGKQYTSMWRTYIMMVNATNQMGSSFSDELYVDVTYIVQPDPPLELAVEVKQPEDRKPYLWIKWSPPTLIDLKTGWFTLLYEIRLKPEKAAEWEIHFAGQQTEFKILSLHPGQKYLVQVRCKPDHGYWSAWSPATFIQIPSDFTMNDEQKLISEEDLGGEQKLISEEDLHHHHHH
The procedure: (§1) Measurements were conducted on a T200 Biacore instrument. Kinetic association (kₐ) and dissociation (kd) rate constants were determined by processing and fitting the data to a 1:1 binding model using Scrubber 2.0 curve fitting software.

The target in experiment [2] is T2, hPRLR.mFc (soluble dimeric human PRLR) (human).
T2 construct: dimeric PRLR construct
T2 chain: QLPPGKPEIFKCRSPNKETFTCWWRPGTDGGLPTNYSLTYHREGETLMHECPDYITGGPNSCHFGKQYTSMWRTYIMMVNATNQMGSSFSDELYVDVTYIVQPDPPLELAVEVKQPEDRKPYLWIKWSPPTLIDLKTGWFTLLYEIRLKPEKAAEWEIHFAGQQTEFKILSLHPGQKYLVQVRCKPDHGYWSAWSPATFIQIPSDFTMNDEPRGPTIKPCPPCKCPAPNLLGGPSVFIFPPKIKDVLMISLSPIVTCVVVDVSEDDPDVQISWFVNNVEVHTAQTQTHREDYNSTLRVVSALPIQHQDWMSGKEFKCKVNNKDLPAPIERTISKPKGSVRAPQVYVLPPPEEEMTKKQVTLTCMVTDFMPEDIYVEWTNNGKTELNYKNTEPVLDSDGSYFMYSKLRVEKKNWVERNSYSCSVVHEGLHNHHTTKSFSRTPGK
The procedure:
as §1

The target of experiment [3] is T3, macaca fascicularis (mf) PRLR.mmh (soluble monomeric monkey PRLR) (Macaca fascicularis).
T3 construct: called soluble monomeric PRLR protein
T3 chain: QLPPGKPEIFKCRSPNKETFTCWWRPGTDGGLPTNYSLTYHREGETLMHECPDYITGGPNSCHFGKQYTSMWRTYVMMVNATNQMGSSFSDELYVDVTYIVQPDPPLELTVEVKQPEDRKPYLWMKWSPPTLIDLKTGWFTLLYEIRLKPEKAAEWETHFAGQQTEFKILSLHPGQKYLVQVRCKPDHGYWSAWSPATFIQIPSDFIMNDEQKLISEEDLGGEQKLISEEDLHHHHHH
The procedure:
as §1

B1: H1H6793P (antibody, human IgG1, V domains shown)
VH: EVQLVESGGGLVQPGGSLRLSCAASGFSFSIYAMSWFRQAPGKGLEWVSAINGRGDGTHYADSVKGRFTISRDNSKTTLYLQMSSLRAEDTAVYYCAKPVMSTNGFDIWGQGTMVTVSS
VL: DIQMTQSPSTLSASVGDRVTITCRASQSISSWLAWYQLKPGKAPKLLIYKASNLESGVPSRFSGSGSGTEFTLTISSLQPDDFATYYCQQYNIYWTFGQGTKVEIK
notes: Human IgG1 Fc (H1H)
Broadly, the Kd is the constant that tells how readily two partners part at equilibrium. As a reminder, the koff is the first-order rate constant of dissociation. One may read the kon as the rate constant with which the complex forms. For B1, in experiment [1], the affinity, expressed as Kd, was 1.41 nM; the T½ was found to be 35 min; the koff came to 0.000332 s⁻¹; the kon stood at 235000 M⁻¹ s⁻¹. Besides, in experiment [2], the Kd worked out at 0.331 nM, the T½ came out at 153 min, the dissociation rate constant (koff) came to 7.57e-05 s⁻¹ and the kon was 229000 M⁻¹ s⁻¹. In experiment [3], this molecule had an equilibrium dissociation constant (Kd) of 2.22 nM, a T½ of 29 min, a koff of 0.000393 s⁻¹ and a kon of 177000 M⁻¹ s⁻¹.

B2: H1H6953N (antibody, human IgG1, V domains shown)
VH: EVQLLESGGGLVQPGGTLRLSCAASGFTFSAYAMSWVRQAPGKGLEWVSSINVRAGDTYYADSVKGRFTISRDNSKNTLFLLMNSLRAEDTAAYYCAKARYSSNWGFDFWGQGTLVTVSS
VL: DIVMTQSPDSLTVSLGARTTINCQSSQTILHSSNNHNYLAWYQQKPGLPPKLLIYWSSTRESGVPDRFSGSGSGTDFTLTISSLQAEDVAIYYCQQYSNTPYTFGQGTKLEIN
notes: Tested with human IgG1 Fc (H1H); also called H1M6953N
In experiment [1], B2 displayed a Kd of 0.268 nM, a T½ of 54.5 min, a koff of 0.000212 s⁻¹ and a kon of 792000 M⁻¹ s⁻¹. In experiment [2], this molecule came in with a Kd of 0.067 nM, a T½ of 242 min, a dissociation rate constant (koff) of 4.77e-05 s⁻¹ and an on-rate (kon) of 711000 M⁻¹ s⁻¹. Further, in experiment [3], binding was characterised by a dissociation constant (Kd) of 0.438 nM, the T½ was 36.3 min, the koff came to 0.000319 s⁻¹ and the kon was determined as 727000 M⁻¹ s⁻¹.

B3: H1H6797P (antibody, human IgG1, V domains shown)
VH: EVQLVESGGGLVQPGGSLRLSCIVSGFTFSGSWMSWVRQLPGKGLEWVANIKEDGSDSYYVDSVEGRFTISRDNAKSSLYLQMNSLRVDDTAVYFCARARTVPLHYWGQGTLVTVSS
VL: DIQMTQSPSTLSASVGDRVTITCRASQSINIWLAWYQQKPGKAPKLLIYRASYLESGVPSSFAGGGSGTEFTLTISSLQPDDFGTYYCQHYNSYPFTFGQGTKLEIK
notes: Human IgG1 Fc (H1H)
For B3, in experiment [1], binding was characterised by a dissociation constant (Kd) of 1.73 nM, the T½ stood at 6 min, the koff was determined as 0.00196 s⁻¹ and the kon worked out at 1.13e+06 M⁻¹ s⁻¹. In experiment [2], this molecule gave a Kd of 0.122 nM, a T½ of 97 min, a koff of 0.000119 s⁻¹ and a kon of 982000 M⁻¹ s⁻¹. In experiment [3], binding was put at a Kd of 3.12 nM, the T½ came to 6 min, the koff was found to be 0.00209 s⁻¹ and the kon came to 670000 M⁻¹ s⁻¹.

B4: H1H6804P (antibody, human IgG1, V domains shown)
VH: QVTLKESGPVLVKPTQTLSLTCTVSGFSLSDAGMGVSWIRQPPGKALEWLAHIFSNDGKSYSTSLKSRLTISKDTSKRQVVLTMTNMDPVDTATYYCARIRTGTYSLYLDYWGQGTLVTVSS
VL: DIQMTQSPSSLSASVGDRVTITCRASQSINSYLNWYQQKPGKAPKLLLYFASSLQSGVPSRFSGSGSGTDFTLTISSLQPEDFASYYCQESYSTPWTFGQGTKVEIK
notes: Human IgG1 Fc (H1H)
Turning to B4, in experiment [1], the Kd is 1.4 nM, the T½ amounted to 18 min, the koff is 0.000634 s⁻¹ and the kon worked out at 453000 M⁻¹ s⁻¹. In experiment [2], this molecule showed a Kd of 0.193 nM, a T½ of 133 min, a dissociation rate constant (koff) of 8.69e-05 s⁻¹ and a kon of 451000 M⁻¹ s⁻¹. In addition, in experiment [3], binding was put at a Kd of 1.99 nM, the T½ turned out to be 18 min, the koff was found to be 0.000657 s⁻¹ and the kon amounted to 331000 M⁻¹ s⁻¹.

B5: H1H6800P (antibody, human IgG1, V domains shown)
VH: EVQLVESGGGLVQPGRSLRLSCAASGFTFDGYAMHWVRQGPGKGLEWVSGISWYSDTLGYADSVKGRFTISRDNAKNSLYLQMNSLRTEDTAFYYCAKISSSGWAFDYWGQGTLVTVSS
VL: EIVLTQSPGTLSLSPGERATLSCRASHSVSSAYLAWYQQKPGQTPRLLIYGTSSRATGIPDRFSGSGSGTDFTLTISRLEPEDFAVYYCQQYGSSPLFTFGPGTKVDIK
notes: Human IgG1 Fc (H1H)
In experiment [1], B5 gave a Kd of 0.972 nM, a T½ of 28 min, a koff of 0.000409 s⁻¹ and a kon of 421000 M⁻¹ s⁻¹. Also, in experiment [2], the Kd amounted to 0.184 nM, the T½ stood at 133 min, the koff was determined as 8.69e-05 s⁻¹ and the kon turned out to be 473000 M⁻¹ s⁻¹. In experiment [3], this molecule returned a Kd of 1.25 nM, a T½ of 30 min, a koff of 0.00038 s⁻¹ and an on-rate constant (kon) of 303000 M⁻¹ s⁻¹.

B6: H1H6795P (antibody, human IgG1, V domains shown)
VH: QVQLVQSGAEVKKPGASVKVSCKASGYTFGTSGITWVRQAPGQGLEWMGWSSAYNGKTDYAQKFQDRVTMTTDTSTTTGYMEMRSLTSDDTAVYYCTTVVRRPFDFWGQGTLVTVSS
VL: DIQMTQSPSSLSASVGDRVTITCRASQDINNFLAWFQQKPGKAPKSLIYAASSLQSGVPSKFSGGGSGTDFALTISSLQPEDFATYYCQQYSSYPITFGQGTRLEIK
notes: Human IgG1 Fc (H1H)
B6: in experiment [1], the dissociation constant (Kd) amounted to 1.52 nM, the T½ was 7 min, the koff was found to be 0.00177 s⁻¹ and the association rate constant (kon) is 1.17e+06 M⁻¹ s⁻¹. Further, in experiment [2], the Kd worked out at 0.0545 nM, the T½ amounted to 137 min, the koff came out at 8.41e-05 s⁻¹ and the kon amounted to 1.54e+06 M⁻¹ s⁻¹. Further, in experiment [3], the Kd is 2.33 nM, the T½ came to 6 min, the koff was determined as 0.00197 s⁻¹ and the kon was determined as 844000 M⁻¹ s⁻¹.

B7: H1H6803P (antibody, human IgG1, V domains shown)
VH: EVQLVESGGGVVRPGGSLRLSCAASGFKFDDYGMTWVRHVPGKGLEWVSGINWNGGRTGYTDSVKGRFTISRDNAKNSLYLQMNSLRAEDTALYHCAGARRDAFDIWGQGTMVTVSS
VL: DIQMTQSPSSLSASIGDRVTITCRASQNIIKYLNWYQQNAGKAPKLLIYTASSLQSGVPSRFSGSGSGTDFTLTISSLQPEDFATYYCQQSSSSPYTFGQGTKLEIK
notes: Human IgG1 Fc (H1H)
In experiment [1], B7 showed a Kd of 1.67 nM, a T½ of 84 min, a koff of 0.000137 s⁻¹ and an on-rate constant (kon) of 82400 M⁻¹ s⁻¹. Further, in experiment [2], binding was put at a Kd of 0.607 nM, the T½ is 184 min, the koff amounted to 6.29e-05 s⁻¹ and the kon is 104000 M⁻¹ s⁻¹. In experiment [3], binding was put at a Kd of 3.37 nM, the T½ amounted to 55 min, the koff turned out to be 0.000209 s⁻¹ and the association rate constant (kon) turned out to be 62100 M⁻¹ s⁻¹.

B8: H1H6801P (antibody, human IgG1, V domains shown)
VH: QVQLQQSGPGLVKPSQTLSLTCVISGDSVSSNTAWNWVRQSPSRGLEWLGRTYYRSKWYNDYAVSVKSRITINPDTSKNQFSLLMNSVTPEDTAVYYCARVVRGLNYFDYWGQGTLVTVSS
VL: DIVMTQSPDSLAVSLGERATINCKSSQSVLYNSNNKNYLAWYQQKPGQPPKLLIYWSSSRESGVPDRFSGSGSGTDFTLTISGLQAEDVAIYYCQQYSTIPYTFGQGTKLEIK
notes: Human IgG1 Fc (H1H)
Take B8: in experiment [1], the affinity, expressed as Kd, was 0.894 nM; the T½ turned out to be 15 min; the koff turned out to be 0.000756 s⁻¹; the kon came to 846000 M⁻¹ s⁻¹. In experiment [2], this molecule gave a Kd of 0.161 nM, a T½ of 106 min, a koff of 0.000109 s⁻¹ and an on-rate (kon) of 675000 M⁻¹ s⁻¹. In experiment [3], this molecule came in with a Kd of 1.88 nM, a T½ of 9 min, a koff of 0.00123 s⁻¹ and a kon of 657000 M⁻¹ s⁻¹.

B9: H1H6807P (antibody, V domains shown)
VH: QVQLVESGGGVVQPGRSLRLSCAASGFTFSDYNMHWVRQAPGKGLEWVAVIWYDGSNKHYADSVKGRFTISRDNSKNTLYLQMNSLRAEDTAVYYCARDGFTIFGMVLDYWGQGTLVTVSS
VL: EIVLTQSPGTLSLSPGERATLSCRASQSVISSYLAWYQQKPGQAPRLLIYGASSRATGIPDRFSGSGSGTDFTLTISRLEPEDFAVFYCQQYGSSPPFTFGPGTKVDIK
notes: Human IgG1 Fc (H1H)
Regarding B9, in experiment [1], the affinity, expressed as Kd, was 0.189 nM; the T½ was determined as 80 min; the koff was 0.000144 s⁻¹; the kon amounted to 761000 M⁻¹ s⁻¹. In experiment [2], this molecule returned a Kd of 0.0803 nM, a T½ of 212 min, a koff of 5.46e-05 s⁻¹ and a kon of 680000 M⁻¹ s⁻¹. In experiment [3], this molecule had a Kd of 0.346 nM, a T½ of 76 min, a koff of 0.000151 s⁻¹ and a kon of 437000 M⁻¹ s⁻¹.
